Test results reported in patent US20090062512A1, “Comparative ligand mapping from MHC class I positive cells” (priority 2000, published 2009).
“And” between values parts separate entries of the source, which are not always exact repeats. Equal entries are not always repeated.

target: B*0702 class I MHC molecules in cells infected with the PR8 strain of influenza A virus (Homo sapiens, UniProt P01889); format: cell-based; conditions: not given

Row | Substance | Fold Increase
1 | AARPATSTL | 5.1
2 | APAGRKVGL | 1.5
3 | APGAPPRTL | 1.5
4 | APKIGPLGL | 1.54
5 | APKRPPSAF | 1.82
6 | APNRPPAAL | 1.5
7 | APPPPPKAL | 2.29
8 | APRGTGIVSA | 2.2
9 | APRPPPKM | 2.9
10 | APRPVAVAV | 1.5
11 | ARPATSL | 2.2
12 | DPMKARVVL | 1.87
13 | EPRPPHGEL | 2.7
14 | GPPGTGKTAL | 1.5
15 | GPREAFRQL | 6.03
16 | GPRSSLRVL | 3.16
17 | GPYPYTL | 2.01
18 | HLNEKRRF | 2.02
19 | IPSIQSRGL | 1.6
20 | ITAPPSRVL | 1.98
21 | KPQDYKKR | 2.9
22 | LLPGENINLL | 7.13
23 | LPKPPGRGV | 1.9
24 | LPRGSSPSVL | 1.57
25 | LPSSGRSSL | 2
26 | LVFQPVAEL | 4.33

same assay, conditions: PR8B0702: presentation by sHLA B*0702, influenza PR8 infected vs uninfected cells

Row | Substance | Fold Increase
27 | APEEHPVLL (listed as Homo sapiens) | 1.92
28 | GPLDIEWLI (listed as Homo sapiens) | 2.2

target: A*0201 class I MHC molecules in cells infected with the PR8 strain of influenza A virus (Homo sapiens, UniProt P04439, D140Y/D185E/D98H/E176V/E277Q/G131W/G231S/I119V/I121R/I166T/I218V/L300P/L318F/N151K/N90K/P208A/P217A/Q86G/Q94H/R138H/R169H/T345S); format: cell-based; conditions: not given

Row | Substance | Fold Increase
29 | AIIGGTFTV | 4.17
30 | AIVDKVPSV | 1.88
31 | ALASHLIEA | 1.67
32 | ALDEKLLNI | 1.61
33 | ALDKATVLL | 2.13
34 | ALLAGSEYLKL | 1.51
35 | ALLDKLYAL | 3.1
36 | ALLSAVTRL | Unique
37 | ALMDEVVKA | 2.59
38 | ALNDHFVKL | 23.02
39 | ALNEKLVNL | 1.52
40 | ALQELLSKGL | 2.8
41 | ALSDGVHKI | 1.88 and 2.36
42 | ALVEIGPRFVL | 10.83
43 | ALVSSLHLL | 1.51
44 | ALWEAKEGGLL | 1.54
45 | AMIELVERL | 1.81
46 | AVGKVIPEL | 12.46
47 | AVSDGVIKV | 8.98
48 | FAITAIKGV | 3.49
49 | FIQTQQLHAA | Unique
50 | FLAEEGFYKF | 2.98

Row | Substance | Fold Increase
51 | FLASESLIKQIPR | Unique
52 | FLFNTENKL | 1.85
53 | FLGRINEI | 1.99
54 | FLLEKGYEV | 1.81
55 | FLPSYIIDV | 2.57
56 | FMFDEKLVTV | 1.99
57 | GIDSSSPEV | Unique
58 | GIVEGLMTTV | 3.1
59 | GIWGFIKGV | 6.1
60 | GLAEDSPKM | 2
61 | GLAKLIADV | 2.91
62 | GLATDVQTV | 3.5
63 | GLDIDGIYRV | 1.95
64 | GLDKQIQEL | 4.09
65 | GLGPTFKL | unique
66 | GLIDGRLTI | 1.67
67 | GLIENDALL | 1.71
68 | GLLDPSVFHV | 2.17
69 | GLMTTVHAIT | 2.5
70 | GLMTTVHAITA | 3.2
71 | GLMTTVHAITAT | Unique
72 | GLMTTVHAITATQ | Unique

Row | Substance | Fold Increase
73 | GLQDFDLLRV | 2.29
74 | GLWDKFSEL | 2.59
75 | GMASVISRL | Unique
76 | GMYIFLHTV | 2.32
77 | GMYVFLHAV | 2.73
78 | GVAESIHLWEV | 2.89
79 | GVIAEILRGV | 1.56
80 | GVLDNIQAV | Unique
81 | GVYGDVHRV | 2.9
82 | IIMLEALERV | 13.68
83 | ILCPMIFNL | 2.51
84 | ILDKKVEKV | Unique
85 | ILGYTEHQV | 23.91
86 | ILMEHIHKL | 5.46
87 | ILSGVVTKM | 1.74
88 | ILYDIPDIRL | 5.99
89 | IMLEALERV | 1.64
90 | KAPPAPLAA | Unique
91 | KIADFGWSV | 2.26
92 | KIAPNTPQL | 2.63
93 | KIFEMGPVFTL | 6.45
94 | KIIDEDGLLNL | 1.56

Row | Substance | Fold Increase
95 | KLDEGNSL | 4.32
96 | KLDPTKTTL | 2.93
97 | KLEEIIHQI | 2.08
98 | KLFDDDETGKISF | Unique
99 | KLFPDTPLAL | Unique
100 | KLIGDPNLEFV | 2.82
101 | KLLDFGSLSNL | 3.57
102 | KLLEGEESRISL | 2.1
103 | KLMELHGEGSS | Unique
104 | KLQEFLQTL | 2.3
105 | KMLEKLPEL | 2.14
106 | KMWDPHNDPNA | Unique
107 | KMYEEFLSKV | 1.8
108 | KVFDPVPVGV | 1.74
109 | KVPEWVDTV | 5.94
110 | LLDANLNIKI | 2.78
111 | LLDVPTAAV | 5.18
112 | LLDVTPLSL | 9.68
113 | LLDVVHPA | 33.09
114 | LLDVVHPAA | 3.43
115 | LLLDVPTAAV | 1.95
116 | LLLDVPTAAVQA | 6.24

Row | Substance | Fold Increase
117 | LMTTVHAITAT | Unique
118 | NDHFVKL | 7.75
119 | QLLGSAHEV | 4.98
120 | RLDDVSNDV | 2.55
121 | RLIDLGVGL | 2.03
122 | RLTPKLMEV | 2.2
123 | RLWPKIQGL | Unique
124 | RLYPWGVVEV | 2.79
125 | RVPPPPPIA | 6.54
126 | SIIGRLLEV | 56.92
127 | SLAKIYTEA | 5.38
128 | SLDQPTQTV | 9.84
129 | SLFEGTWYL | 2.36
130 | SLLDIIEKV | 2.56
131 | SLWSIISKV | 3.06
132 | SLYEMVSRV | 1.87
133 | SMLEDVQRA | 2.4
134 | SMMDVDHQI | 3.58
135 | SMPDFDLHL | 1.83
136 | SMTLAIHEI | 2.11
137 | TIAQLHAV | Unique
138 | TLAEIAKVEL | 3.32

Row | Substance | Fold Increase
139 | TLAEVERLKGL | Unique
140 | TLAKYLMEL | 6.81
141 | TLDEYTTRV | 3.74
142 | TLIDLPGITKV | 6.48
143 | TLIGLSIKV | 2.28
144 | TLLEDGTFKV | 1.67
145 | TLQEVFERATF | Unique
146 | TLWDIQKDLK | 1.64
147 | TLWGIQKEL | 3.27
148 | TLWPEVQKL | 2.97
149 | VINDVRDIFL | 1.71
150 | VLEDPVHAV | 3.91
151 | VLFDVTGQVRL | 2.48
152 | VLLSDSNLHDA | 10.95
153 | VMDSKIVQV | 22.84
154 | VVQDGIVKA | Unique
155 | YAYDGKDYI | Unique
156 | YAYDGKDYIA | 1.6
157 | YLDIKGLLDV | 2.44
158 | YLDKVRALE | Unique
159 | YMEEIYHRI | 3.98
